Assay results: patent publication US20250215052A1 (UNIVERSITY OF COPENHAGEN, published 2025)
Where no end group is shown, it is not given here.

Biological target: T1, Protein Interacting with C Kinase-1 (PICK1), purified recombinant (UniProt Q9EP80 1-416)
T1 construct: also called purified PICK1
Experiment: fluorescence polarization competition, tracer 5-FAM-TAT-C5, purified PICK1

T1 sequence (Q9EP80 whole entry): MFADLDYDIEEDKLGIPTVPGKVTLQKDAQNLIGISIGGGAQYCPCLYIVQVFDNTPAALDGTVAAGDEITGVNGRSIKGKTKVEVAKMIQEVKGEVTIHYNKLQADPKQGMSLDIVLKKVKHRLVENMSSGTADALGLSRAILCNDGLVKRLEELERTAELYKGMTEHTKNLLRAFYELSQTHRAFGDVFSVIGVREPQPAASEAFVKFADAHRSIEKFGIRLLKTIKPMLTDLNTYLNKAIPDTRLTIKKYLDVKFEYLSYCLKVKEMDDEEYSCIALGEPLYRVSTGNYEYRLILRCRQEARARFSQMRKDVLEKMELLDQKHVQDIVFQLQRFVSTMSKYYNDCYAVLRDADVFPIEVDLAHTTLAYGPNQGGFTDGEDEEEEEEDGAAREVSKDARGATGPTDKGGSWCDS

B1: MAP-P4-(C5)2 (peptide)
peptide 1: HWLKV
peptide 2: KLALKLALKALKAALKLA
modifications: not fully specified (N-terminus); also: dimer: two HWLKV copies joined at N-termini by NPEG4 linker, MAP peptide conjugated to the NPEG4 linker
notes: also called MAP-peptide
Fold affinity change (vs TAT-P4-(C5)2): 0.8 fold | Ki: 5.1 nM
